# Laboratory results as given in the supplement of paper PMC10724198.
# ± gives the standard deviation of the averaged measurements.
# System: Saccharomyces cerevisiae
# Experiment: protein stability index of tFT-peptide fusion (C-terminal peptide) (PSI (0-1 scale)); higher = more stable (slower turnover)
# Settings: genetic background: wild type; temperature: 30 C
# Experimental: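 MPS profiling in S. cerevisiae of the yeast C-terminome library: the last 12 aa of each annotated ORF are fused to the C-terminus of a sfGFP-mCherry timer, after a GGGS linker. Cells are FACS-sorted into 8 mCherry/sfGFP bins and deep-sequenced. PSI runs from 0 (unstable) to 1 (stable); wild type and das1Δ backgrounds, two technical replicates each.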
row,Sequence,protein stability index
1,IFYLRFPSYIRG [YJR151W-A C-terminal 12 aa],0.615 ± 0.0023
2,IGRENENENEDD [POP5 C-terminal 12 aa],0.704 ± 0.058
3,IHTPTIPKRSLT [MCX1 C-terminal 12 aa],0.767 ± 0.052
4,IIGALNLYDGLI [FRQ1 C-terminal 12 aa],0.763 ± 0.12
5,IIGIYYVLKWLR [BOS1 C-terminal 12 aa],0.392 ± 0.0089
6,IKLARRLRGERS [YBR010W; YNL031C C-terminal 12 aa],0.68 ± 0.012
7,IKLIDFNETSLT [MCM22 C-terminal 12 aa],0.675 ± 0.0072
8,IKRLDANTDFNI [MFB1 C-terminal 12 aa],0.668 ± 0.024
9,ILDDTRQALGNT [PCL8 C-terminal 12 aa],0.737 ± 0.013
10,ILKELSNLETLY [RPB4 C-terminal 12 aa],0.737 ± 0.051
11,ILNCVGSAKTSG [YBR298C-A C-terminal 12 aa],0.666 ± 0.019
12,ILRNASQIVSSV [VPS1 C-terminal 12 aa],0.6942 ± 0.0029
13,ILRPLELKYFGR [FCY2 C-terminal 12 aa],0.675 ± 0.027
14,ILSLYFISDRTG [YBR200W-A C-terminal 12 aa],0.753 ± 0.053
15,ILWKNGIYIAHI [HUR1 C-terminal 12 aa],0.6113 ± 0.0034
16,ININDLMVNRNH [YOR389W C-terminal 12 aa],0.7003 ± 0.0012
17,INKKKSGSGCIC [YPT10 C-terminal 12 aa],0.647 ± 0.026
18,INKRAVSNSKDV [RFT1 C-terminal 12 aa],0.727 ± 0.027
19,IPTKKSQMDYFL [PPH3 C-terminal 12 aa],0.753 ± 0.064
20,IRLDGENNSCSC [YPT7 C-terminal 12 aa],0.697 ± 0.012
21,ISRKAGHPAPAF [YML100W-A C-terminal 12 aa],0.704 ± 0.03

row,Sequence,protein stability index
1,ITLRLWEQRQAK [MAD1 C-terminal 12 aa],0.726 ± 0.0076
2,IYALSIKHPKEI [CPT1 C-terminal 12 aa],0.7248 ± 0.0029
3,IYANRDKAKKNM [OPI3 C-terminal 12 aa],0.499 ± 0.03
4,IYIYTSTLQLCV [YHR028W-A C-terminal 12 aa],0.362 ± 0.011
5,IYSVIQCLFLHS [YMR141W-A C-terminal 12 aa],0.607 ± 0.018
6,KAALDRVENALA [IML2 C-terminal 12 aa],0.676 ± 0.017
7,KAIEYFEEYQSW [FRE3 C-terminal 12 aa],0.6952 ± 0.0065
8,KDGFVLYSYGQK [SKP2 C-terminal 12 aa],0.738 ± 0.034
9,KDKKDKKKKHRD [RPA34 C-terminal 12 aa],0.664 ± 0.035
10,KDLFASIGKKKL [FYV8 C-terminal 12 aa],0.682 ± 0.026
11,KDWLIKTRKTSL [TVS1 C-terminal 12 aa],0.693 ± 0.011
12,KEDKKKKSSNCC [YPT32 C-terminal 12 aa],0.732 ± 0.014
13,KEGRRSRTRTSS [YJR098C C-terminal 12 aa],0.703 ± 0.0041
14,KENLANNEILDN [YKL063C C-terminal 12 aa],0.67 ± 0.026
15,KERIVLSNVRPM [TFC7 C-terminal 12 aa],0.686 ± 0.027
16,KESIQQQEDDLL [SEC17 C-terminal 12 aa],0.692 ± 0.014
17,KETDKVNDENSI [MLP1 C-terminal 12 aa],0.756 ± 0.059
18,KETTTRNYRGTC [GAD1 C-terminal 12 aa],0.707 ± 0.032
19,KFAKANIGYVMG [RPN4 C-terminal 12 aa],0.495 ± 0.011
20,KFDIVDQLLSTL [RSM24 C-terminal 12 aa],0.684 ± 0.014
21,KFEKKLYNFLGF [GEP4 C-terminal 12 aa],0.717 ± 0.017

row,Sequence,protein stability index
1,KGMKRLDYRFIH [SOA1 C-terminal 12 aa],0.234 ± 0.012
2,KGNLPGVKKGIW [MRP2 C-terminal 12 aa],0.668 ± 0.011
3,KGRYVNSSKRRS [NOB1 C-terminal 12 aa],0.6781 ± 0.004
4,KGTKRDQNDNHN [AQR1 C-terminal 12 aa],0.6782 ± 0.0022
5,KHAFMGTLKKDL [RPL3 C-terminal 12 aa],0.686 ± 0.03
6,KIEHVDDETRTH [PEX13 C-terminal 12 aa],0.6991 ± 0.0042
7,KILGRYVVDTSK [ADH3 C-terminal 12 aa],0.6547 ± 0.0035
8,KKKRGFLGLFGR [SRP68 C-terminal 12 aa],0.677 ± 0.0092
9,KKLEGTIEYQKL [RPT4 C-terminal 12 aa],0.702 ± 0.012
10,KKLNFKLCQAFM [NUP85 C-terminal 12 aa],0.6183 ± 0.006
11,KKNGKISEKPKK [PDR15 C-terminal 12 aa],0.677 ± 0.037
12,KKNKSAIDGIFG [RMP1 C-terminal 12 aa],0.694 ± 0.014
13,KKPSSYVMVPRP [MRPL8 C-terminal 12 aa],0.6724 ± 0.002
14,KKQESDNDANSK [CMC2 C-terminal 12 aa],0.6755 ± 0.0052
15,KKSKNRNTSLRP [SIP5 C-terminal 12 aa],0.689 ± 0.02
16,KLDEAEMQGLIM [YMR158C-A C-terminal 12 aa],0.724 ± 0.041
17,KLKRTITLPQLD [CIK1 C-terminal 12 aa],0.761 ± 0.074
18,KLSAPIFSILHS [APT2 C-terminal 12 aa],0.504 ± 0.0051
19,KLTIRIKQKTHL [YOR316C-A C-terminal 12 aa],0.6824 ± 0.0065
20,KMGQSFNAAGKF [TIM10 C-terminal 12 aa],0.683 ± 0.0072
21,KNFKTDLSSSSL [SMK1 C-terminal 12 aa],0.711 ± 0.014

row,Sequence,protein stability index
1,KNFYNRHTSPQL [YHL008C C-terminal 12 aa],0.679 ± 0.02
2,KNKKNKKKGKKK [CHS5 C-terminal 12 aa],0.696 ± 0.019
3,KNLWEKFWAAVA [LYP1 C-terminal 12 aa],0.28 ± 0.021
4,KNLWHHKINNLN [RAM2 C-terminal 12 aa],0.166 ± 0.021
5,KNRFSNGRWGRR [SLD2 C-terminal 12 aa],0.72 ± 0.015
6,KNRRRNTKKIAF [RLP24 C-terminal 12 aa],0.6678 ± 0.0055
7,KPEEEKETLQEE [PAF1 C-terminal 12 aa],0.649 ± 0.031
8,KPSSNNSINIKV [AHK1 C-terminal 12 aa],0.743 ± 0.031
9,KQIVFEIPSETH [RPS7A C-terminal 12 aa],0.6789 ± 0.0028
10,KQREKYAAVASK [SOP4 C-terminal 12 aa],0.698 ± 0.043
11,KQSQRQVPHSIK [SPO21 C-terminal 12 aa],0.708 ± 0.011
12,KQSVQQQKTGNY [YHL009W-A C-terminal 12 aa],0.663 ± 0.00095
13,KRLGKKTVVTSR [DCC1 C-terminal 12 aa],0.717 ± 0.055
14,KRRNWRRTKMNI [RPL39 C-terminal 12 aa],0.705 ± 0.04
15,KSAKTAKASQEL [HTA2 C-terminal 12 aa],0.673 ± 0.023
16,KSARSWVRSGRL [YPR053C C-terminal 12 aa],0.77 ± 0.013
17,KSCDEDGQEDEA [TPA1 C-terminal 12 aa],0.642 ± 0.011
18,KSDLISNIRQKI [RBH1 C-terminal 12 aa],0.638 ± 0.037
19,KSLRSSFGKKLI [PHS1 C-terminal 12 aa],0.717 ± 0.046
